Reference: the supplement of paper PMC9233669
Fewer inactive variants are shown than the library holds.

Legend:
biotinyl-Phe-oxazolone = assay: self-aminoacylation, catalytic enhancement (BFO) (fold over background); higher = more active; k-Seq, kA / k0A0; sequences stand for … in GGGAAUGGAUCCACAUCUACGAAUUC…UUCACUGCAGACUUGACGAAGCUG
Procedure, shortened: (§1)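 Each biotinyl-aminoacyl-oxazolone, at 2–1250 μM, was incubated with mutagenized RNA pools (0.43 μM) carrying a 21-nt variable region. The 50 μL reactions contained HEPES/NaCl/KCl/MgCl2/CaCl2 buffer with 5% acetonitrile at pH 6.9–7.0 and ran for 90 minutes at room temperature. After streptavidin capture, RNA was measured by qPCR in triplicate and by Illumina sequencing, and catalytic enhancement was calculated as median kA over the uncatalyzed rate from a pseudo-first-order fit of per-sequence fraction reacted.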

biotinyl-Trp-oxazolone = assay: self-aminoacylation, catalytic enhancement (BWO) (fold over background); higher = more active; k-Seq, kA / k0A0; sequences stand for … in GGGAAUGGAUCCACAUCUACGAAUUC…UUCACUGCAGACUUGACGAAGCUG
Procedure, shortened: as §1

biotinyl-Ile-oxazolone = assay: self-aminoacylation, catalytic enhancement (BIO) (fold over background); higher = more active; k-Seq, kA / k0A0; sequences stand for … in GGGAAUGGAUCCACAUCUACGAAUUC…UUCACUGCAGACUUGACGAAGCUG
Procedure, shortened: as §1

biotinyl-Leu-oxazolone = assay: self-aminoacylation, catalytic enhancement (BLO) (fold over background); higher = more active; k-Seq, kA / k0A0; sequences stand for … in GGGAAUGGAUCCACAUCUACGAAUUC…UUCACUGCAGACUUGACGAAGCUG
Procedure, shortened: as §1

biotinyl-Met-oxazolone = assay: self-aminoacylation, catalytic enhancement (BMO) (fold over background); higher = more active; k-Seq, kA / k0A0; sequences stand for … in GGGAAUGGAUCCACAUCUACGAAUUC…UUCACUGCAGACUUGACGAAGCUG
Procedure, shortened: as §1

biotinyl-Val-oxazolone = assay: self-aminoacylation, catalytic enhancement (BVO) (fold over background); higher = more active; k-Seq, kA / k0A0; sequences stand for … in GGGAAUGGAUCCACAUCUACGAAUUC…UUCACUGCAGACUUGACGAAGCUG
Procedure, shortened: as §1

| Sequence | self-aminoacylation (biotinyl-Phe-oxazolone) | self-aminoacylation (biotinyl-Trp-oxazolone) | self-aminoacylation (biotinyl-Ile-oxazolone) | self-aminoacylation (biotinyl-Leu-oxazolone) | self-aminoacylation (biotinyl-Met-oxazolone) | self-aminoacylation (biotinyl-Val-oxazolone) |
| --- | --- | --- | --- | --- | --- | --- |
| AAGUUUGCUAAUAUUCUCAAG [Fam3.1 aminoacylation ribozyme variant] | 1.04 | 1.48 | 1.1 | 1.15 | 1.17 | 1.18 |
| AAGUUUGCUAAUAUUGGCAAG [Fam3.1 aminoacylation ribozyme variant] | 0.81 | 1.22 | 0.773 | 0.847 | 0.894 | 0.784 |
| AAGUUUGCUAAUCCUCGCAAG [Fam3.1 aminoacylation ribozyme variant] | 0.881 | 0.599 | 0.706 | 0.725 | 0.628 | 0.733 |
| AAGUUUGCUAAUCGUCGCAAU [Fam3.1 aminoacylation ribozyme variant] | 0.833 | 1.03 | 1.39 | 1.04 | 1.3 | 1.3 |
| AAGUUUGCUAAUCGUCGCGAG [Fam3.1 aminoacylation ribozyme variant] | 1.8 | 1.49 | 1.04 | 1.36 | 1.27 | 1.01 |
| AAGUUUGCUAAUCGUCGCUAG [Fam3.1 aminoacylation ribozyme variant] | 1.07 | 0.871 | 0.976 | 0.87 | 0.844 | 0.834 |
| AAGUUUGCUAAUCGUCGUAAG [Fam3.1 aminoacylation ribozyme variant] | 6.16 | 2.06 | 0.808 | 0.75 | 0.85 | 0.947 |
| AAGUUUGCUAAUGGUAGCAAG [Fam3.1 aminoacylation ribozyme variant] | 1.12 | 0.649 | 1.02 | 0.692 | 0.976 | 0.994 |
| AAGUUUGCUAAUGGUCCCAAG [Fam3.1 aminoacylation ribozyme variant] | 1.11 | 1.21 | 0.977 | 0.908 | 0.976 | 1 |
| AAGUUUGCUAAUUGUCGCCAG [Fam3.1 aminoacylation ribozyme variant] | 5.34 | 1.73 | 1.49 | 1.49 | 1.53 | 1.39 |
| AAGUUUGCUAAUUGUCGCGAG [Fam3.1 aminoacylation ribozyme variant] | 17.4 | 2.7 | 2.04 | 2.02 | 1.75 | 1.68 |
| AAGUUUGCUAAUUGUGGCAAG [Fam3.1 aminoacylation ribozyme variant] | 0.701 | 0.773 | 0.735 | 0.988 | 0.688 | 0.817 |
| AAGUUUGCUACUAGUCGCAUG [Fam3.1 aminoacylation ribozyme variant] | 1.11 | 0.836 | 0.915 | 0.707 | 0.717 | 1.09 |
| AAGUUUGCUAGUAGUCACAAG [Fam3.1 aminoacylation ribozyme variant] | 1.37 | 0.986 | 1.05 | 0.962 | 1.43 | 1.08 |
| AAGUUUGCUAGUAGUCGCAGG [Fam3.1 aminoacylation ribozyme variant] | 2.48 | 1.05 | 0.89 | 0.956 | 1.02 | 0.799 |
| AAGUUUGCUAGUUGUCGCAAG [Fam3.1 aminoacylation ribozyme variant] | 3.68 | 1.18 | 1.07 | 1.16 | 0.898 | 1.08 |
| AAGUUUGCUAUGAGUCGCAAG [Fam3.1 aminoacylation ribozyme variant] | 0.664 | 0.54 | 0.692 | 0.778 | 0.644 | 0.974 |
| AAGUUUGCUAUUAGUCGCAAA [Fam3.1 aminoacylation ribozyme variant] | 1.58 | 1.74 | 1.52 | 1.47 | 1.84 | 1.35 |
| AAGUUUGCUAUUGGUCGCAAG [Fam3.1 aminoacylation ribozyme variant] | 1.46 | 0.66 | 0.787 | 1.05 | 0.756 | 0.76 |
| AAGUUUGCUCAAAGUCGCAAG [Fam3.1 aminoacylation ribozyme variant] | 2.29 | 1.13 | 1.24 | 0.974 | 1.37 | 0.877 |
| AAGUUUGCUCAUAGUCCCAAG [Fam3.1 aminoacylation ribozyme variant] | 1.29 | 0.793 | 0.902 | 0.902 | 0.856 | 1.06 |
| AAGUUUGCUCAUAGUCGCAUG [Fam3.1 aminoacylation ribozyme variant] | 0.909 | 0.856 | 1.05 | 0.903 | 0.893 | 1.04 |
